Experiment: Thermal denaturation by differential scanning calorimetry (DSC)
Assay type: physicochemical
Settings: 1 mg/ml, 20 mM citrate pH6.2, 100 mM NaCl, 180° C./hour, non-2-state model
Description: Protein was dialysed overnight into 20 mM citrate pH6.2, 100 mM NaCl, filtered and then prepared at concentration of 1 mg/ml as determined by absorbance at 280 nm. Filtered dialysis buffer was used as a reference for all samples. DSC was performed at a heating rate of 180° C./hour. Before each sample a solution of 1% decon, and then buffer were injected to clean the cells and to provide instrumental baseline. Obtained traces were analysed using Origin 7 Microcal software. The DSC trace obtained from the reference buffer was subtracted from the sample trace. Precise molar concentration of the sample was used for calculations (performed automatically by Origin). Baseline setting for both upper and lower baselines linear regions before/after transition were selected and connected using cubic connect function. The resulting graph is fitted to non-2-state model, generating apparent Tm, and ΔH/ΔHv values.

## lysozyme
  appTm: 76.2 °C

Source: US20130189255A1, “FUSIONS AND CONJUGATES OF INSULINOTROPIC AGENTS” (GLAXO GROUP LIMITED, priority 2008, published 2013)
